Results on one substance are retold here after paper PMC10663608.

For this assay, the target named is human EGFR tagged with mTurquoise at the C-terminus (EGFR-mTurquoise) (human) (UniProt P00533).

Substance “EGF ligand from mouse labeled with rhodamine at its N-terminus (rho-mEGF)” showed a K (resp) of the transducer function for Y1068 phosphorylation (phosphorylation against ligand-bound EGFR fraction in single vesicles) (fraction of ligand-bound receptors) of 0.4 and a K (resp) of the transducer function for Y1173 phosphorylation (phosphorylation against ligand-bound EGFR fraction in single vesicles) (fraction of ligand-bound receptors) of 0.86.
